Measured values published in patent US20040235726A1, “Glucagon-like peptides (glp-1) and treatment of respiratory distress” (priority 2001, published 2004).
Where no end group is shown, it is not given here.

Each binder was assayed against human GLP-1 receptor (human, UniProt P43220 24-463) (assay: cell-based or functional assay).

Row | Binder | GLP-1 receptor activation relative to Val^8-GLP-1 (7-37) OH
1 | HVEGTFTSDVSSYLEGQAAHEFIAWLVKGRG-OH [Val^8-His^26-GLP-1 (7-37) OH] | 3.5 relative to Val^8-GLP-1 (7-37) OH
2 | HVEGTFTSDVSSYLEGQAAEEFIAWLVKGRG-OH [Val^8-Glu^26-GLP-1 (7-37) OH] | 3.3 relative to Val^8-GLP-1 (7-37) OH
3 | HVEGTFTSDVSSYLEAQAAKEFIAWLVKGRG-OH [Val^8-Ala^22-GLP-1 (7-37) OH] | 1.2 relative to Val^8-GLP-1 (7-37) OH
4 | HVEGTYTSDYSSYLEGQAAKEFIAWLVKGRG-OH [Val^8-Tyr^12-Tyr^16-GLP-1 (7-37) OH] | 1.5 relative to Val^8-GLP-1 (7-37) OH
5 | HVEGTFTSDWSSYLEEQAAKEFIAWLIKGRG-OH [Val^8-Trp^16-Glu^22-Ile^33-GLP-1 (7-37) OH] | 4.1 relative to Val^8-GLP-1 (7-37) OH
6 | HVEGTFTSDASSYLEGQAAKEFIAWLVKGRG-OH [Val^8-Ala^16-GLP-1 (7-37) OH] | 0.25 relative to Val^8-GLP-1 (7-37) OH
7 | HVEGTFTSDVSSYLEEQAIKEFIAWLVKGRG-OH [Val^8-Glu^22-Ile^25-GLP-1 (7-37) OH] | 3.1 relative to Val^8-GLP-1 (7-37) OH
8 | HVEGTYTSDVSSYLEGQAAKEFIAWLVKGR-NH2 [Val^8-Tyr^12-GLP-1 (7-36) NH2] | 1.1 relative to Val^8-GLP-1 (7-37) OH
9 | HVEGTFTSDLSSYLEEQAAKEFIAWLVKGRG-OH [Val^8-Leu^16-Glu^22-GLP-1 (7-37) OH] | 4.3 relative to Val^8-GLP-1 (7-37) OH
10 | HVEGTFTSDVSSYLEGQAAKEFIAWLVEGRG-OH [Val^8-Glu^34-GLP-1 (7-37) OH] | 0.4 relative to Val^8-GLP-1 (7-37) OH
11 | HVEGTFTSDVSSYLEGQAAKEFIAWLAKGRG-OH [Val^8-Ala^33-GLP-1 (7-37) OH] | 0.2 relative to Val^8-GLP-1 (7-37) OH
12 | HVEGTFTSDVSSYLEGKAAKEFIAWLVKGRG-OH [Val^8-Lys^23-GLP-1 (7-37) OH] | 0.4 relative to Val^8-GLP-1 (7-37) OH
13 | HVEGTFTSDYSSWLEEQAAKEFIAWLVKGRG-OH [Val^8-Tyr^16-Trp^19-Glu^22-GLP-1 (7-37) OH] | 3.5 relative to Val^8-GLP-1 (7-37) OH
14 | HVEGTFTSDVSFYLEEQAAKEFIAWLVKGRG-OH [Val^8-Phe^18-Glu^22-GLP-1 (7-37) OH] | 2 relative to Val^8-GLP-1 (7-37) OH
15 | HVEGTFTSDVSSYLEKQAAKEFIAWLVKGRG-OH [Val^8-Lys^22-GLP-1 (7-37) OH] | 1.3 relative to Val^8-GLP-1 (7-37) OH
16 | HVEGTFTSDISSYLEEQAAKEFIAWLVKGRG-OH [Val^8-Ile^16-Glu^22-GLP-1 (7-37) OH] | 3.3 relative to Val^8-GLP-1 (7-37) OH
17 | HVEGTFTSDVSSYLEEQALKEFIAWLVKGRG-OH [Val^8-Glu^22-Leu^25-GLP-1 (7-37) OH] | 2.8 relative to Val^8-GLP-1 (7-37) OH
18 | HVEGTFTSDVSSYLESQAAKEFIAWLVKGRG-OH [Val^8-Ser^22-GLP-1 (7-37) OH] | 1.1 relative to Val^8-GLP-1 (7-37) OH
19 | HVEGTFTSDFSSYLEEQAAKEFIAWLVKGRG-OH [Val^8-Phe^16-Glu^22-GLP-1 (7-37) OH] | 2.3 relative to Val^8-GLP-1 (7-37) OH
20 | HAEGTFTSDVSSYLEQQAAKEFIAWLVKGRG-OH [Gln^22-GLP-1 (7-37) OH] | 0.9 relative to Val^8-GLP-1 (7-37) OH
21 | HVEGTFTSDVSSYLEEQAAKEFIAWLVKGRH-OH [Val^8-Glu^22-His^37-GLP-1 (7-37) OH] | 4.7 relative to Val^8-GLP-1 (7-37) OH
22 | HVEGTWTSDVSSYLEGQAAKEFIAWLVKGRG-OH [Val^8-Trp^12-GLP-1 (7-37) OH] | 1.1 relative to Val^8-GLP-1 (7-37) OH
23 | HGEGHFTSDVSSYLEGQAAKEFIAWLVKGRG-OH [Gly^8-His^11-GLP-1 (7-37) OH] | 0.6 relative to Val^8-GLP-1 (7-37) OH
24 | HVEGTFTSDVSSYKEGQAAKEFIAWLVKGRG-OH [Val^8-Lys^20-GLP-1 (7-37) OH] | 0.7 relative to Val^8-GLP-1 (7-37) OH
25 | HVEGTFTSDVSKYLEEQAAKEFIAWLVKGRG-OH [Val^8-Lys^18-Glu^22-GLP-1 (7-37) OH] | 2.5 relative to Val^8-GLP-1 (7-37) OH
26 | HVEGTFTSDVSSYLEKQAAKEFIAWLVKGR-NH2 [Val^8-Lys^22-GLP-1 (7-36) NH2] | 1.2 relative to Val^8-GLP-1 (7-37) OH
27 | HVEGTFTSDVSSYLEHQAAKEFIAWLVKGRG-OH [Val^8-His^22-GLP-1 (7-37) OH] | 0.3 relative to Val^8-GLP-1 (7-37) OH

Row | Binder | GLP-1 receptor activation relative to Val^8-GLP-1 (7-37) OH
28 | HVEGTFTSDVSSYLEGQAAKEFIAWLVKHRG-OH [Val^8-His^35-GLP-1 (7-37) OH] | 0.9 relative to Val^8-GLP-1 (7-37) OH
29 | HVEGTFTSDVSSYLEDQAAKEFIAWLVKGRG-OH [Val^8-Asp^22-GLP-1 (7-37) OH] | 0.9 relative to Val^8-GLP-1 (7-37) OH
30 | HVEGTFTSDVSSWLEEQAAKEFIAWLVKGRG-OH [Val^8-Trp^19-Glu^22-GLP-1 (7-37) OH] | 3.2 relative to Val^8-GLP-1 (7-37) OH
31 | HVEGTFTSDVSSYLEGQAAKEFIDWLVKGRG-OH [Val^8-Asp^30-GLP-1 (7-37) OH] | 0.3 relative to Val^8-GLP-1 (7-37) OH
32 | HVEGTFTSDVSSYLEGQAAKEFIAWLVKPRG-OH [Val^8-Pro^35-GLP-1 (7-37) OH] | 0.2 relative to Val^8-GLP-1 (7-37) OH
33 | HVEGTWTSDVSSYLEEQAAKEFIAWLVKGRG-OH [Val^8-Trp^12-Glu^22-GLP-1 (7-37) OH] | 1.7 relative to Val^8-GLP-1 (7-37) OH
34 | HVEGTFTSDVSSYLEEQAAKEFIAWLVKGRG-OH [Val^8-Glu^22-GLP-1 (7-37) OH] | 2.9 relative to Val^8-GLP-1 (7-37) OH
35 | HVEGTFTSDWSSYLEEQAVKEFIAWLVKGRG-OH [Val^8-Trp^16-Glu^22-Val^25-GLP-1 (7-37) OH] | 4.4 relative to Val^8-GLP-1 (7-37) OH
36 | HGEGTFTSDVSSYLEGQAAKEFIEWLVKGRG-OH [Gly^8-Glu^30-GLP-1 (7-37) OH] | 0.6 relative to Val^8-GLP-1 (7-37) OH
37 | HVEGTFTSDVSSYFEEQAAKEFIAWLVKGRG-OH [Val^8-Phe^20-Glu^22-GLP-1 (7-37) OH] | 2.7 relative to Val^8-GLP-1 (7-37) OH
38 | HVEGTFTSDVSSYLEGQAAKEFIAWLVKERG-OH [Val^8-Glu^35-GLP-1 (7-37) OH] | 0.3 relative to Val^8-GLP-1 (7-37) OH
39 | HVEGTFTSDVSSYLEGQAAKEFIAWLVKGEG-OH [Val^8-Glu^36-GLP-1 (7-37) OH] | 0.2 relative to Val^8-GLP-1 (7-37) OH
40 | HVEGTFTSDVSSYLEGQAAKEFIHWLVKGRG-OH [Val^8-His^30-GLP-1 (7-37) OH] | 0.4 relative to Val^8-GLP-1 (7-37) OH
41 | HVEGTFTSDWSSYLEEQAVKEFIAWLIKGRG-OH [Val^8-Trp^16-Glu^22-Val^25-Ile^33-GLP-1 (7-37) OH] | 5 relative to Val^8-GLP-1 (7-37) OH
42 | HVEGTFTSDVSSYLEEQAAKIFIAWLVKGRG-OH [Val^8-Glu^22-Ile^27-GLP-1 (7-37) OH] | 2 relative to Val^8-GLP-1 (7-37) OH
43 | HVEGTFTSDVSIYLEEQAAKEFIAWLVKGRG-OH [Val^8-Ile^18-Glu^22-GLP-1 (7-37) OH] | 4 relative to Val^8-GLP-1 (7-37) OH
44 | HVDGIFTSDYSSYLEEQAAKEFIAWLVKGRG-OH [Val^8-Asp^9-Ile^11-Tyr^16-Glu^22-GLP-1 (7-37) OH] | 4.3 relative to Val^8-GLP-1 (7-37) OH
45 | HVEGTFTSDYSSFLEGQAAKEFIAWLVKGRG-OH [Val^8-Tyr^16-Phe^19-GLP-1 (7-37) OH] | 2.8 relative to Val^8-GLP-1 (7-37) OH
46 | HVEGTFTSDVSSYLEGQAAKEFISWLVKGRG-OH [Val^8-Ser^30-GLP-1 (7-37) OH] | 0.4 relative to Val^8-GLP-1 (7-37) OH
47 | HVEGTFTSDESSYLEGQAAKEFIAWLVKGRG-OH [Val^8-Glu^16-GLP-1 (7-37) OH] | 0.1 relative to Val^8-GLP-1 (7-37) OH
48 | HVEGTYTSDVSSYLEEQAAKEFIAWLVKGRG-OH [Val^8-Tyr^12-Glu^22-GLP-1 (7-37) OH] | 2.7 relative to Val^8-GLP-1 (7-37) OH
49 | HVEGTFTSDLSSYLEGQAAKEFIAWLVKGRG-OH [Val^8-Leu^16-GLP-1 (7-37) OH] | 1.1 relative to Val^8-GLP-1 (7-37) OH
50 | HGEGTFTSDVSSYLEGQAAKEFIAWLVKGRG-OH [Gly^8-GLP-1 (7-37) OH] | 1.7 relative to Val^8-GLP-1 (7-37) OH
51 | HVEGTFTSDVSSYLEGQALKEFIAWLVKGRG-OH [Val^8-Leu^25-GLP-1 (7-37) OH] | 0.5 relative to Val^8-GLP-1 (7-37) OH
52 | HVEGTFTSDVSSYLEGQAAKEFIAWLVKGHG-OH [Val^8-His^36-GLP-1 (7-37) OH] | 0.5 relative to Val^8-GLP-1 (7-37) OH
53 | HVEGTFTSDVSSFLEEQAAKEFIAWLVKGRG-OH [Val^8-Phe^19-Glu^22-GLP-1 (7-37) OH] | 1.5 relative to Val^8-GLP-1 (7-37) OH
54 | HVEGTFTSDVSSYLEGQAAKHFIAWLVKGRG-OH [Val^8-His^27-GLP-1 (7-37) OH] | 0.8 relative to Val^8-GLP-1 (7-37) OH
